Test results reported in patent publication US20160158380A1 (INSERM INSTITUT NATIONAL DE LA SANTE ET DE LA RECHERCHE …, published 2016).

What was measured:
CLDN7 = biological target: T1, CLDN7 (human, UniProt O95471 1-211); assay: flow cytometry on parental SW480 cells, which express CLDN7
T1 construct: whole, on cells; Species is inferred from the human SW480 cell line
T1 sequence (looked up): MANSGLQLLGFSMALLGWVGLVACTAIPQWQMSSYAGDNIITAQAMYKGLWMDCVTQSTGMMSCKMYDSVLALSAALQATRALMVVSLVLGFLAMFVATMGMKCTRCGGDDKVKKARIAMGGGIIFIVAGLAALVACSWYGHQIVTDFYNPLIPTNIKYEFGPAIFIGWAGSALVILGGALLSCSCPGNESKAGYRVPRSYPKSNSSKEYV

murine CLDN1 = biological target: T2, murine CLDN1 (murine, UniProt O88551 1-211); assay: flow cytometry on SW480 cells transiently transfected with murine CLDN1
T2 construct: whole, on cells; also called mCLDN1
T2 sequence (looked up): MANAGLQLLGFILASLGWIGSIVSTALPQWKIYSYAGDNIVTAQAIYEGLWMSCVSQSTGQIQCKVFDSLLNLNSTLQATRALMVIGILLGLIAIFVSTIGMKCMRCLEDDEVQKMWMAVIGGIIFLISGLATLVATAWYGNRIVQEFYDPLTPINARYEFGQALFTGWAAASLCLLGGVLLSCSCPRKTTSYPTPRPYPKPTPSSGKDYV
Experimental: (§1) Hybridomas or mAbs binding was determined with a FACScan fluorescence-activated cell sorter (Quanta apparatus, Beckman Coulter). Cells were seeded in 25 cm² flasks (2×10⁵ cells/flask). After a 48-hour rest, one million cells were pelleted, Washed with PBS-1% BSA and incubated with hybridomas or mAbs, on ice for 1 h. After washing, an appropriate anti-mouse FITC conjugated monoclonal antibody ((1:60 dilution; (Invitrogen) was added (on ice for 45 mn) to detect the primary antibodies. Direct incubation of cells with the secondary antibody was used for background measurements (negative control).
(§2) After transitory transfection on SW480 cells of human cDNA clone of CLDN8 (sc320974, Origene technologies, USA) and murine cDNA clone of CLDN1 (IRAVp968A105D, LifeScience), we analysed by FACs cross-reactivity of 6F6C3 mAb.

human CLDN8 = biological target: T3, human CLDN8 (human, UniProt P56748 1-225); assay: flow cytometry on SW480 cells transiently transfected with human CLDN8
T3 construct: whole, on cells
T3 sequence (looked up): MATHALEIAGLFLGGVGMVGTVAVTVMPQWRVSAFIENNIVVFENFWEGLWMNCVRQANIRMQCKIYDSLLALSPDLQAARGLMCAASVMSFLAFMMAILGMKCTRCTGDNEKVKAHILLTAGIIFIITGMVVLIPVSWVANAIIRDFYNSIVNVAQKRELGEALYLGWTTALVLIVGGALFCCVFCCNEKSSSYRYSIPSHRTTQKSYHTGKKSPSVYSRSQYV
Experimental: as §1, §2

binding result (CLDN7): no binding (tested: 10 µg/mL)
binding result (murine CLDN1): no binding (tested: 10 µg/mL)
binding result (human CLDN8): no binding (tested: 10 µg/mL)
B1: 6F6C3 mAb (antibody, V domains shown)
VH: QIQLVQSGPELKKPGETVRISCKASGYTFTTSGMQWLQKMPGKGLKWIGWINTHFGEPKYAEDFKGRFAFSLETSASTAYLQISNLKNEDTATYFCAGAGYYGSRYFDVWGAGTTVTVSS
VL: DIVMTQSQKFMSTSVGDRVSITCKASQNVGTAVAWYQQKPGQSPKLLIYSASNRYTGVPDRFTGSGSGTDFTLTISNMQSEDLADYFCQQYSSYPLTFGGGTKLEIK
notes: Mouse hybridoma monoclonal antibody, IgG3 heavy chain and kappa light chain; also called mAb6F6C3; MAb 6F6C3
